# The supplement of paper PMC10724198
# ± gives the standard deviation of the averaged measurements.
# Tested on: Saccharomyces cerevisiae
# Assay: protein stability index of tFT-peptide fusion (C-terminal peptide) (PSI (0-1 scale)); higher = more stable (slower turnover)
# Settings: genetic background: wild type; temperature: 30 C
# 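Note: PSI is a weighted mean of sequencing reads over stability bins, variants kept only with over 10 reads, mCherry proximal and sfGFP distal, peptide attached via GGGS linker.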
row,Sequence,protein stability index
1,NLRRPLYYNGSV,0.757 ± 0.076
2,NNNKKKDDNIDM,0.618 ± 0.079
3,NPMSLTTKRKTE,0.651 ± 0.11
4,NPQRGLNAQLFG,0.656 ± 0.045
5,NPQTVNSPIFPT,0.752 ± 0.018
6,NPTDIAINTGIS,0.742 ± 0.0081
7,NQAQTQQMKTEW,0.608 ± 0.05
8,NQAWYFVRLAGD,0.776 ± 0.022
9,NQCRSQVRQNGY,0.762 ± 0.15
10,NQEPRVSFCRDS,0.716 ± 0.044
11,NQRCLRGKIVRC,0.633 ± 0.03
12,NRDSRTLGSTVG,0.6744 ± 0.0011
13,NRGPPNMRQITP,0.712 ± 0.085
14,NRKGNKHEKKYE,0.691 ± 0.0039
15,NRNIRKKKIKNK,0.668 ± 0.054
16,NRRERQQREVYN,0.741 ± 0.21
17,NRRGGTLLATLF,0.659 ± 0.017
18,NRSERIKDNRGK,0.723 ± 0.025
19,NRSFIITRSVLS,0.683 ± 0.029
20,NSALQELNKAVG,0.625 ± 0.029
21,NSESVRLGLGNE,0.705 ± 0.054
22,NSGSQSQDKQER,0.658 ± 0.013
23,NSPKTKKTNFKE,0.665 ± 0.017
24,NSRCSIQGAPLL,0.726 ± 0.041
25,NSSPRFPTPDNP,0.6618 ± 0.00081
26,NSVLRESSGLQL,0.689 ± 0.044

row,Sequence,protein stability index
1,NSVWPGYPCTHP,0.639 ± 0.03
2,NTGEHVVPCKGT,0.659 ± 0.0067
3,NTGGVTRVIGCV,0.704 ± 0.029
4,NTGNGYDEKTME,0.7622 ± 0.0014
5,NTHPPPLPTTKH,0.7393 ± 0.007
6,NTNEKKRQRKKK,0.6389 ± 0.0037
7,NTSKEDENKARI,0.707 ± 0.019
8,NVIGSGLFVGWD,0.795 ± 0.087
9,NVLIISEQNHEP,0.748 ± 0.047
10,NVYRYSWYCSEF,0.728 ± 0.088
11,NWLYPYSLRRRG,0.663 ± 0.13
12,PAAPPLGFTRTD,0.7 ± 0.0095
13,PAELGAGYVMGG,0.699 ± 0.022
14,PAGSRGRHSRER,0.712 ± 0.061
15,PAGVPPAVCRDL,0.609 ± 0.0092
16,PAHSLPPPPPPP,0.702 ± 0.041
17,PALPHQPLPRPQ,0.797 ± 0.023
18,PALPPLPPPPPA,0.71 ± 0.016
19,PALPPPVLLRLP,0.557 ± 0.062
20,PALPTPILSSPP,0.709 ± 0.012
21,PAPLPFPPPSLP,0.701 ± 0.032
22,PAPLPPPAPSST,0.69 ± 0.02
23,PAPLRSPLVLPS,0.721 ± 0.039
24,PAPPPPPPGTAA,0.641 ± 0.061
25,PAPPPQSPAPYR,0.704 ± 0.049
26,PAPPRSLPPSSP,0.6536 ± 0.0058

row,Sequence,protein stability index
1,PARPPPPRPPPP,0.712 ± 0.03
2,PASLSPAVPESS,0.719 ± 0.044
3,PASPCTPLPFSP,0.686 ± 0.04
4,PASPTLRPYWDP,0.645 ± 0.068
5,PASSAPDSSTAH,0.7406 ± 0.0052
6,PAVIVAPYSQGE,0.701 ± 0.025
7,PAVSLPPPAPAS,0.721 ± 0.051
8,PAYACLCGFGIA,0.62754 ± 0.00056
9,PCGLRLAFRLSL,0.619 ± 0.038
10,PCHPGASLRRRL,0.861 ± 0.067
11,PCPHPLRPALIL,0.704 ± 0.014
12,PCPLPVPCCLRP,0.636 ± 0.016
13,PCPRIPSSRRLA,0.574 ± 0.044
14,PCRANRRLVTSP,0.628 ± 0.056
15,PCVISRPPRLFP,0.752 ± 0.06
16,PDGGPGLLRFVL,0.64 ± 0.015
17,PDLEMQMTRTRG,0.70081 ± 0.00044
18,PDLLHLPAHRHA,0.6722 ± 0.0055
19,PDLPHYHPPPPL,0.727 ± 0.011
20,PDRPVISLLLPS,0.646 ± 0.079
21,PEGCQDGASPAE,0.759 ± 0.021
22,PEGLKKKKEKRI,0.706 ± 0.049
23,PELLGVARDGFR,0.65 ± 0.0097
24,PESTPRVHSNDY,0.691 ± 0.027
25,PFFSFLYPRFYF,0.682 ± 0.0096
26,PFFVRNTFTCSL,0.735 ± 0.11

row,Sequence,protein stability index
1,PFLRPPSPPSSP,0.66 ± 0.013
2,PFPFSLPSPPLP,0.551 ± 0.14
3,PFPLPPLHSSHR,0.734 ± 0.03
4,PFPPRPPSDRIR,0.659 ± 0.088
5,PFPPTPVRRVPL,0.715 ± 0.025
6,PFPRGCCRLLSP,0.707 ± 0.012
7,PFRPPPRFPPPV,0.815 ± 0.042
8,PFSAPRRLPRTV,0.697 ± 0.0089
9,PFSGLPVRCELC,0.672 ± 0.048
10,PFSLPAFLLPTL,0.712 ± 0.053
11,PFSLPPPRPPRP,0.684 ± 0.045
12,PFSNFFFRLSFS,0.665 ± 0.028
13,PFSPHPGPPPPP,0.7659 ± 0.002
14,PFSTWLSSPSLP,0.774 ± 0.07
15,PFVGSSPFPLCL,0.645 ± 0.042
16,PFVPPPHRDDSP,0.746 ± 0.082
17,PGATSAIPPPFT,0.738 ± 0.03
18,PGGLSCPSPPTI,0.676 ± 0.057
19,PGLPLPPFPFFS,0.762 ± 0.047
20,PGNFLSVSMSIC,0.649 ± 0.051
21,PGPLVFPLPLAC,0.578 ± 0.036
22,PGPSPSPPLPRF,0.748 ± 0.014
23,PGPSPVLPPPPP,0.633 ± 0.038
24,PGRFVVGAGRED,0.686 ± 0.024
25,PGSTCWLFEFLS,0.711 ± 0.07
26,PGTATRAPQLIP,0.727 ± 0.033

row,Sequence,protein stability index
1,PHAPHPPALTPP,0.623 ± 0.072
2,PHAPSHLPSSLP,0.712 ± 0.025
3,PHDPHNTATNQG,0.721 ± 0.016
4,PHDRSPPHGPKL,0.742 ± 0.1
5,PHLDSPGPLAII,0.682 ± 0.023
6,PHLPPSLFPSPP,0.659 ± 0.073
7,PHLRTRRPPLLH,0.694 ± 0.01
8,PHLTTPATPVLL,0.716 ± 0.023
9,PHPPHPPPPPPS,0.689 ± 0.036
10,PHPPPSPGPSPP,0.707 ± 0.11
11,PHPPRPPRAPPP,0.634 ± 0.024
12,PHPPRPSTPPPT,0.637 ± 0.059
13,PHPRSVSPPPPS,0.624 ± 0.075
14,PHPSAAPPPNPP,0.759 ± 0.062
15,PHPSLPGPFPHP,0.7049 ± 0.0045
16,PHPWTSPPAPPP,0.698 ± 0.022
17,PHRLLTQITTGT,0.746 ± 0.12
18,PIAASAPPLCPR,0.692 ± 0.014
19,PIALPSPSSPIF,0.669 ± 0.015
20,PIFQGTCPSTFV,0.675 ± 0.02
21,PIFVCPFPGSLV,0.683 ± 0.065
22,PIGLCLYNSPRF,0.662 ± 0.035
23,PILPPLVPSSRL,0.769 ± 0.07
24,PIMESARGFLCV,0.658 ± 0.052
25,PINIERNKRIKR,0.733 ± 0.021
26,PIPAPFFLAPPL,0.731 ± 0.06

row,Sequence,protein stability index
1,PIPPPPPLRPSS,0.69 ± 0.011
2,PIPTQYPPPKAP,0.675 ± 0.069
3,PKKDNIQLQKPA,0.694 ± 0.028
4,PKPPPSSGRCPA,0.633 ± 0.011
5,PKRHLTFLPRGV,0.662 ± 0.036
6,PKWSVTPVAANL,0.695 ± 0.048
7,PLALPLPRLVLP,0.643 ± 0.026
8,PLCLCCPIGIIS,0.516 ± 0.008
9,PLFAPLCLNSNR,0.666 ± 0.016
10,PLFASLHPSGPL,0.699 ± 0.032
11,PLGDLGPRLRKP,0.669 ± 0.039
12,PLGPSTQHPLSI,0.687 ± 0.025
13,PLHMWFSLLKPS,0.716 ± 0.074
14,PLHNPPTRRTTP,0.67 ± 0.056
15,PLHPQPAATPRS,0.713 ± 0.023
16,PLHPSRPPPSSP,0.708 ± 0.033
17,PLIYFLASNSRF,0.713 ± 0.069
18,PLLDEQCLGIDS,0.658 ± 0.015
19,PLLPFRYTRSGT,0.68 ± 0.07
20,PLLPLAASPPPP,0.683 ± 0.051
21,PLLPPLPPPLPP,0.692 ± 0.1
22,PLLPSPAPLHPP,0.583 ± 0.044
23,PLLRPRLRPFPR,0.704 ± 0.049
24,PLNQSYFVFSGN,0.724 ± 0.019
25,PLPIHSHPPPVP,0.615 ± 0.0068
26,PLPIPHASPTLA,0.641 ± 0.025

row,Sequence,protein stability index
1,PLPIPSPLRSSF,0.689 ± 0.053
2,PLPLPPSVTSLL,0.729 ± 0.044
3,PLPPILPAPPPT,0.704 ± 0.028
4,PLPPLLPPSPPP,0.767 ± 0.0085
5,PLPPLPPPPPAA,0.682 ± 0.038
6,PLPPLPPPTAPP,0.693 ± 0.029
7,PLPPPPLLALCS,0.531 ± 0.02
8,PLPPPPPPPLPP,0.737 ± 0.011
9,PLPPPPRPPAPL,0.688 ± 0.0072
10,PLPPPPRPPPNP,0.665 ± 0.01
11,PLPPPPRPRPPL,0.721 ± 0.04
12,PLPPPPTPPVLP,0.691 ± 0.016
13,PLPPPRPSPGLL,0.67 ± 0.1
14,PLPPPSGLLSRL,0.902 ± 0.047
15,PLPPSHPPTGPP,0.661 ± 0.012
16,PLPPTFPSPLPP,0.665 ± 0.008
17,PLPPTPPPLAPP,0.644 ± 0.086
18,PLPRHSSPLPHI,0.684 ± 0.0089
19,PLPRPPSPPYPP,0.65 ± 0.035
20,PLPRPRHHEPNS,0.75 ± 0.044
21,PLPRTPTLPTPE,0.635 ± 0.036
22,PLPSPPAPNSPQ,0.6793 ± 0.0053
23,PLPSSSTRSTSP,0.714 ± 0.013
24,PLPYPPTSPTPR,0.678 ± 0.0078
25,PLPYSPPLHVYP,0.691 ± 0.023
26,PLRAHLYRPSVP,0.69 ± 0.03

row,Sequence,protein stability index
1,PLRALLPTRCNL,0.732 ± 0.067
2,PLRGRRPIFPAP,0.724 ± 0.088
3,PLRPPSSPLWHT,0.6937 ± 0.0037
4,PLRRSTSPLILL,0.648 ± 0.033
5,PLRSLNHSGRPP,0.641 ± 0.06
6,PLRSLPRPLSST,0.65913 ± 0.00011
7,PLRSPSYPPPPP,0.6814 ± 0.00091
8,PLRTLFGDHLLV,0.6826 ± 0.002
9,PLSLRLCYLPWY,0.701 ± 0.0086
10,PLSPLVPVRTRP,0.682 ± 0.072
11,PLSPPLPLPLPL,0.75 ± 0.037
12,PLSPPPAPLPSS,0.747 ± 0.071
13,PLSPPPPGPPAS,0.6037 ± 0.0024
14,PLSPPPPPPLPA,0.71 ± 0.011
15,PLSPPPPTLPLP,0.714 ± 0.036
16,PLSPPPYPPRPL,0.721 ± 0.024
17,PLSPSPPPAFPA,0.794 ± 0.039
18,PLSWVLFSFFHA,0.697 ± 0.062
19,PLTPPLPPSPPP,0.711 ± 0.026
20,PLTTIPSPNSLE,0.666 ± 0.032
